The supplement of paper PMC10567573

Test: protein stability index of a GFP-peptide fusion (GPS, HEK-293T) (PSI 1-6); higher = more stable
Conditions: c terminus: native
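Further: lentivirally expressed fusion library, cells FACS-sorted into six equal-sized GFP/DsRed ratio bins, PSI computed from sequencing read fractions per bin weighted by bin number.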

Q: With DGWIRVSSDNVADLHEKYSGSTPW [PSMB5 addW] as the protein, how does the protein stability index (parent: NP_002788.1) read?
A: 3.46

Q: Which protein stability index (parent: NP_006221.1) does the source give for CQPISFSGFGAEDDDLGGLGLGPW [POLD2 addW] here?
A: 2.02

Q: Which protein stability index (parent: NP_009172.2) does the source give for LPALFTDLYSQEITAEEAREALPW [SNF8 addW] here?
A: 3.4

Q: Which protein stability index (parent: NP_015628.1) does the source give for EQRNSRWNTVLRAVKAKTHHLEPW [TRPA1 addW] here?
A: 3.58

Q: For HSLRAVSTDPPHHDHHDEFCLMPW [BEX2 addW], which protein stability index (parent: NP_116010.1) is on record?
A: 3.48
